Source: publication PMC2660430

Biological target: PfOAT (recombinant ornithine aminotransferase) (P. falciparum strain 3D7) (UniProt Q6LFH8)
Sequence (Q6LFH8 whole entry): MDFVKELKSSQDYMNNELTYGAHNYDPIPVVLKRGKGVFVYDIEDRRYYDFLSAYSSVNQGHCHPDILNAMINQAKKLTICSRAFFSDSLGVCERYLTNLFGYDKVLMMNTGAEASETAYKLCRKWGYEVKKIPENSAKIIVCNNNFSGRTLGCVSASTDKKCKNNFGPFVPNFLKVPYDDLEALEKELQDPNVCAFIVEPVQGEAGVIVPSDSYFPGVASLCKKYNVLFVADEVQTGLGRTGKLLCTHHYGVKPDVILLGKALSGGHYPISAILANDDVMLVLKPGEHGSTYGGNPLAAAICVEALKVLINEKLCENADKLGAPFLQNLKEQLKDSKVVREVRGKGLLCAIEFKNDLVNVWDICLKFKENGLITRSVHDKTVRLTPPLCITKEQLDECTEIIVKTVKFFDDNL

- OAT activity (ornithine aminotransferase assay) with equimolar wild type thioredoxin: 75%
Substance: PfTrx1 (wild type thioredoxin) (from UniProt Q7KQL8 1-104) (natural protein)
